± gives the uncertainty stated by the source.

This data set in a line: self-splicing fitness, log relative to wild type (ln ratio); higher = more splicing; Tetrahymena group I intron in knt gene, E. coli kanamycin selection, DiMSum; sequences stand for … in CUCUCU…GGAGGGAAAAGUUAUCAGGCAUGCACCUGGUAGCUAGUCUUUAAACCAAUAGAUUGCAUCGGUUUAAAAGGCAAGACCGUCAAAUUGCGGGAAAGGGGUCAACAGCCGUUCAGUACCAAGUCUCAGGGGAAACUUUGAGAUGGCCUUGCAAAGGGUAUGGUAAUAAGCUGACGGACAUGGUCCUAACCACGCAGCCAAGUCCUAAGUCAACAGAUCUUCUGUUGAUAUGGAUGCAGUUCACAGACUAAAUGUCGGUCGGGGAAGAUGUAUUCUUCUCAUAAGAUAUAGUCGGACCUCUCCUUAAUGGGAGCUAGCGGAUGAAGUGAUGCAACACUGGAGCCGCUGGGAACUAAUUUGUAUGCGAAAGUAUAUUGAUUAGUUUUGGAGUACUCGUGGUCG
The method, boiled down: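 DiMSum derived fitness as the error-weighted combination of fold changes across replicates, kanamycin versus no kanamycin, normalised to wild type. E. coli BL21(DE3) held the library, which randomised all eight P1ex-region intron nucleotides within the knt kanamycin-resistance gene on pET-22b(+). Six replicate transformations grew overnight at 37°C or 30°C on LB agar with or without 25 μg/mL kanamycin, also containing 100 μg/mL carbenicillin, 50 μM IPTG and 0.2% rhamnose, and pooled colonies were amplicon-sequenced on an Illumina HiSeq 2500.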

With AGGGAGCAAUAUUACGUUGG, the “self-splicing fitness (ln)” value runs as follows: (30 °C) -4.08 ± 0.37; (37 °C) -2.5 ± 0.33. As to AGGUAGCAAUAUUACGACCC, the “self-splicing fitness (ln)” value was -2.38 ± 0.047 (30 °C) and -1.69 ± 0.064 (37 °C). The like results for AGGUAGCAAUAUUACGACUC were, in that order, -0.66 ± 0.018 and -0.19 ± 0.037. As for AGGUAGCAAUAUUACGACUU, the “self-splicing fitness (ln)” value is, setting by setting: (30 °C) -0.167 ± 0.014; (37 °C) -0.0309 ± 0.034. In the same order, the values of AGGUAGCAAUAUUACGAUAU are -1.16 ± 0.014 and -0.423 ± 0.034.

On to AGGUAGCAAUAUUACGAUUC, for which the “self-splicing fitness (ln)” value reads like this: (30 °C) -1.1 ± 0.015; (37 °C) -0.359 ± 0.034. On to AGGUAGCAAUAUUACGAUUU, for which the “self-splicing fitness (ln)” value reads like this: (30 °C) 0.169 ± 0.014; (37 °C) 0.0198 ± 0.033. In the same order, the values of AGGUAGCAAUAUUACGCAGC are -3.808 ± 0.038 and -2.67 ± 0.046. The like results for AGGUAGCAAUAUUACGCGAA were, in that order, -1.61 ± 0.017 and -0.832 ± 0.035.

With AGGUAGCAAUAUUACGCGCC, the “self-splicing fitness (ln)” value reads like this: (30 °C) -2.6 ± 0.032; (37 °C) -1.56 ± 0.043. In the same order, the values of AGGUAGCAAUAUUACGCGUG are -1.485 ± 0.013 and -0.784 ± 0.032. The like results for AGGUAGCAAUAUUACGCUAU were, in that order, -3.873 ± 0.037 and -3.13 ± 0.047. The like results for AGGUAGCAAUAUUACGCUUU were, in that order, -3.041 ± 0.022 and -1.76 ± 0.036. In the case of AGGUAGCAAUAUUACGGCAA, the “self-splicing fitness (ln)” value (30 °C) was -0.557 ± 0.017 and the “self-splicing fitness (ln)” value (37 °C) is -0.339 ± 0.034. The like results for AGGUAGCAAUAUUACGGCAU were, in that order, -0.129 ± 0.014 and 0.107 ± 0.033. The like results for AGGUAGCAAUAUUACGGCCU were, in that order, -3.7 ± 0.04 and -2.6 ± 0.053.

Consider AGGUAGCAAUAUUACGGCUU, for which the “self-splicing fitness (ln)” value is, setting by setting: (30 °C) -0.489 ± 0.015; (37 °C) -0.184 ± 0.034.

On to AGGUAGCAAUAUUACGGGCG, for which the “self-splicing fitness (ln)” value (30 °C) is -1.03 ± 0.015 and the “self-splicing fitness (ln)” value (37 °C) was -0.573 ± 0.034. For AGGUAGCAAUAUUACGGUCA, the “self-splicing fitness (ln)” value (30 °C) was -0.279 ± 0.014 and the “self-splicing fitness (ln)” value (37 °C) was found to be 0.00808 ± 0.033. Turning to AGGUAGCAAUAUUACGGUCC, the “self-splicing fitness (ln)” value (30 °C) is -0.156 ± 0.017 and the “self-splicing fitness (ln)” value (37 °C) worked out at 0.00993 ± 0.035.

For the sequence AGGUAGCAAUAUUACGUCGC, the “self-splicing fitness (ln)” value is, setting by setting: (30 °C) -2.37 ± 0.023; (37 °C) -1.48 ± 0.037.

Consider AGGUAGCAAUAUUACGUGAA, for which the “self-splicing fitness (ln)” value reads like this: (30 °C) -2.213 ± 0.016; (37 °C) -1.34 ± 0.034. In the same order, the values of AGGUAGCAAUAUUACGUGAC are -2.734 ± 0.023 and -1.69 ± 0.037. In the same order, the values of AGGUAGCAAUAUUACGUGGU are -3.697 ± 0.024 and -2.33 ± 0.036. The like results for AGGUAGCAAUAUUACGUGUG were, in that order, -2.883 ± 0.016 and -1.88 ± 0.033. AGGUAGCAAUAUUACGUUAC: the “self-splicing fitness (ln)” value reads like this: (30 °C) -3.617 ± 0.033; (37 °C) -2.85 ± 0.048.

Consider AGGUAGCAAUAUUACGUUUU, for which the “self-splicing fitness (ln)” value (30 °C) was -2.585 ± 0.016 and the “self-splicing fitness (ln)” value (37 °C) was -1.54 ± 0.034. AGUAAGCAAUAUUACGAAAC: where the note is “30 °C”, the “self-splicing fitness (ln)” value was -3.94 ± 0.36. As for AGUAAGCAAUAUUACGAUGU, the “self-splicing fitness (ln)” value is -3.05 ± 0.15 (30 °C) and -1.17 ± 0.13 (37 °C). AGUAAGCAAUAUUACGAUUG: the “self-splicing fitness (ln)” value is -2.97 ± 0.29 (30 °C) and -2.54 ± 0.29 (37 °C). In the same order, the values of AGUAAGCAAUAUUACGAUUU are -0.313 ± 0.1 and -0.0587 ± 0.13. In the same order, the values of AGUAAGCAAUAUUACGCAUU are -2.48 ± 0.15 and -2.26 ± 0.18.

Turning to AGUAAGCAAUAUUACGCCUA, the “self-splicing fitness (ln)” value (30 °C) was -0.00931 ± 0.12 and the “self-splicing fitness (ln)” value (37 °C) was found to be 0.208 ± 0.12. The like results for AGUAAGCAAUAUUACGCGGU were, in that order, -2.66 ± 0.24 and -2.46 ± 0.29. AGUAAGCAAUAUUACGCUAC: the “self-splicing fitness (ln)” value (30 °C) was -0.918 ± 0.3.

As for AGUAAGCAAUAUUACGGAAG, the “self-splicing fitness (ln)” value was -2.55 ± 0.18 (30 °C) and -2.2 ± 0.21 (37 °C). On to AGUAAGCAAUAUUACGGAUU, for which the “self-splicing fitness (ln)” value is -1.92 ± 0.13 (30 °C) and -0.84 ± 0.16 (37 °C).

As to AGUAAGCAAUAUUACGGGGU, the “self-splicing fitness (ln)” value is, setting by setting: (30 °C) -3.24 ± 0.22; (37 °C) -2.46 ± 0.26. Take AGUAAGCAAUAUUACGUAAU: the “self-splicing fitness (ln)” value by setting is: (30 °C) -3.15 ± 0.16; (37 °C) -2.2 ± 0.17. The like results for AGUAAGCAAUAUUACGUAUA were, in that order, -2.38 ± 0.42 and -1.97 ± 0.28. As to AGUAAGCAAUAUUACGUCCU, the “self-splicing fitness (ln)” value runs as follows: (30 °C) -0.602 ± 0.21; (37 °C) 0.854 ± 0.23. In the same order, the values of AGUAAGCAAUAUUACGUCGA are -2.11 ± 0.21 and -1.61 ± 0.2. In the case of AGUAAGCAAUAUUACGUCUU, the “self-splicing fitness (ln)” value (30 °C) was -0.968 ± 0.072 and the “self-splicing fitness (ln)” value (37 °C) is -0.0602 ± 0.078.

On to AGUAAGCAAUAUUACGUGCU, for which the “self-splicing fitness (ln)” value was -2.64 ± 0.23 (30 °C) and -1.2 ± 0.14 (37 °C). The like results for AGUAAGCAAUAUUACGUGGU were, in that order, -4.77 ± 0.29 and -2.59 ± 0.17. The like results for AGUAAGCAAUAUUACGUUAA were, in that order, -2.91 ± 0.21 and -1.63 ± 0.18. In the same order, the values of AGUAAGCAAUAUUACGUUCG are -1.92 ± 0.14 and -1.17 ± 0.17. Take AGUCAGCAAUAUUACGAGAC: the “self-splicing fitness (ln)” value runs as follows: (30 °C) -4.42 ± 0.39; (37 °C) -2.56 ± 0.24. In the same order, the values of AGUCAGCAAUAUUACGAGCC are -0.0313 ± 0.25 and 0.0229 ± 0.3. In the same order, the values of AGUCAGCAAUAUUACGAGCU are -1.97 ± 0.17 and -0.789 ± 0.19. Turning to AGUCAGCAAUAUUACGAGGG, the “self-splicing fitness (ln)” value by setting is: (30 °C) -4.73 ± 0.31; (37 °C) -3.06 ± 0.25. In the same order, the values of AGUCAGCAAUAUUACGAGUC are -2.45 ± 0.11 and -1.09 ± 0.11.

Consider AGUCAGCAAUAUUACGCACA, for which the “self-splicing fitness (ln)” value was -0.062 ± 0.12 (30 °C) and -0.284 ± 0.14 (37 °C).

AGUCAGCAAUAUUACGCACC: the “self-splicing fitness (ln)” value is, setting by setting: (30 °C) -0.932 ± 0.12; (37 °C) 0.383 ± 0.13. In the case of AGUCAGCAAUAUUACGCCGG, the “self-splicing fitness (ln)” value (30 °C) was -2.86 ± 0.48.

For the sequence AGUCAGCAAUAUUACGCCUC, the “self-splicing fitness (ln)” value is -2.68 ± 0.32 (30 °C) and -1 ± 0.42 (37 °C). Take AGUCAGCAAUAUUACGCGAG: the “self-splicing fitness (ln)” value was -1.57 ± 0.16 (30 °C) and -0.523 ± 0.16 (37 °C). As to AGUCAGCAAUAUUACGCGUA, the “self-splicing fitness (ln)” value is, setting by setting: (30 °C) -0.295 ± 0.067; (37 °C) 0.106 ± 0.07.

With AGUCAGCAAUAUUACGGAAC, the “self-splicing fitness (ln)” value is -2.87 ± 0.15 (30 °C) and -1.89 ± 0.15 (37 °C). The like results for AGUCAGCAAUAUUACGGCGG were, in that order, -0.596 ± 0.1 and -0.561 ± 0.12.

(Values after the supplement of paper PMC7877785.)
